Results published in paper PMC2428073, “Architecture of a Serine Recombinase-DNA Regulatory Complex” (Molecular Cell, 2008).
Several values for one entry are separate records, joined by “and”; a condition that tells them apart may be missing. Equal entries are not always repeated.

T1: Sin recombinase (pI9789 Sin) (Staphylococcus aureus (multiresistance …, UniProt P20384 1-202))
T1 sequence: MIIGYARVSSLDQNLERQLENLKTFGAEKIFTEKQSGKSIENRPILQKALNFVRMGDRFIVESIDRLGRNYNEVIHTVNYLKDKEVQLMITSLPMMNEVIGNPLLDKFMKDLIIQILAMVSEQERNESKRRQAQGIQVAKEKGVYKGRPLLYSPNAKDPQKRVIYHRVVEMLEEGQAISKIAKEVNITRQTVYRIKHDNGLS


Tests used:
[1] = target: T1, Sin recombinase (pI9789 Sin); test: X-ray crystallography (MAD/SIRAS, 3.21 A); Crystal structure; protein stored in 25 mM Tris pH 7.5, 0.5 mM EDTA, 400 mM (NH4)2SO4, 20% glycerol; DNA annealed in 100 mM NaCl; crystallization conditions not in the material; conditions: protein: recombinant; tags: His6 (C-terminal); chain copies: 2; overhanging AT dinucleotides pairing with adjacent duplexes
[2] = target: the molecule itself; test: crystal structure; WT Sin cocrystallized with a 29 bp site II DNA duplex (2:1.25 molar ratio), hanging drop, 25 mM TRIS pH 7.5, (NH4)2SO4; two DNA-bound Sin dimers per asymmetric unit; 3.21 Å

Binder | binding result [1] | stoichiometry N [2]
Sin res site II 29 bp duplex (dsDNA, 5-Br-dU and iodine-labelled versions used for phasing) DNA 1: AACGTATGATTAGGGTGTATATTAATTTATA DNA 2: TAAATTAATATACACCCTAATCATACGTTTA | binds | 
Wild-type His6-tagged pI9789 Sin (enzyme, S. aureus, UniProt P20384 1-202, looked up, Sin resolvase (serine recombinase family) encoded by S. aureus plasmid pI9789; the crystal holds 836 Sin residues in four monomers (209 each, with the tag); The last nine residues, which contain the His6 tag, are not seen in the model; In the in vivo synapsis assay WT Sin was expressed from pSA9944 (also with a C-terminal His6 tag) in E. coli DS941; also called WT Sin; Sin resolvase; source: E. …) MIIGYARVSSLDQNLERQLENLKTFGAEKIFTEKQSGKSIENRPILQKALNFVRMGDRFIVESIDRLGRNYNEVIHTVNYLKDKEVQLMITSLPMMNEVIGNPLLDKFMKDLIIQILAMVSEQERNESKRRQAQGIQVAKEKGVYKGRPLLYSPNAKDPQKRVIYHRVVEMLEEGQAISKIAKEVNITRQTVYRIKHDNGLS |  | 2 and 4
